Reference: patent US7595158B2, “Bcl2L12 polypeptide activators and inhibitors” (Dana-Farber Cancer Institute, Inc., priority 2003, dated 2009)
One block for each molecule: values may come before it.

Key:
[1] = tested on: Ink4a/Arf deficient astrocytes; test: DNA fragmentation (sub-G1, FACS) in Ink4a/Arf deficient astrocytes after apoptotic stimuli; type: cell-based, mouse; settings: for DNA fragmentation: 500 nM STS, pBabe about 22 percent
Description: After STS treatment, the cells were analyzed for apoptosis by assessing annexin V binding and DNA fragmentation using a FACS based analysis.
In a separate experiment, Ink4a/Arf deficient astrocytes ectopically expressing Bcl2L12-V5 polypeptide or containing an empty vector as control were treated with 0, 50, 100, or 1000 nM of STS. After a 24 hour-incubation, DNA fragmentation was measured using FACS-based quantification of sub-G1 DNA content.
In another experiment, Ink4a/Arf deficient astrocytes ectopically expressing Bcl2L12-V5 polypeptide or containing an empty vector as control were treated with 0, 2, 4, 8, 16, or 32 μM camptothecin (CPT) for 20 hours. After the 20 hour incubation, DNA fragmentation was determined by FACS-based quantification of sub-G1 peaks. Expression of the Bcl2L12 polypeptide conferred resistance to CPT-stimulated apoptosis.
Ink4a/Arf deficient astrocytes ectopically expressing Bcl2L12-V5 polypeptide or containing an empty vector as control were treated with TNFα in the presence of 1 μg/mL cycloheximide for 24 hours. After the 24 hour incubation, DNA fragmentation was measured using FACS-based quantification of sub-G1 DNA content.
Ink4a/Arf deficient astrocytes ectopically expressing Bcl2L12-V5 polypeptide or containing an empty vector as control were treated with 0, 10, 50, and 100 Gray (Gy) of γ radiation. After 24 hours, DNA fragmentation was measured. Ectopic expression of a Bcl2L12 polypeptide protects INK4a/Arf deficient astrocytes from γ-irradiation-induced apoptosis (FIG. 5C).

[2] = tested on: caspase-2; caspase-3/7; caspase-6; caspase-8; and caspase-9; test: Caspase activity with AFC-labeled peptides in lysates of STS-treated astrocytes; type: cell-based; settings: for caspase activity (caspase-2, -3/7, -6, -8, -9): STS (500 nm) 24 hours
Description: The following experiment was performed to determine whether Bcl2L12 inhibits caspase activation. Briefly, a caspase activation profile was generated using fluorochrome-labeled peptides resembling the ideal cleavage sites for caspases-2 (VDVAF; SEQ ID NO:29), caspases-3/7 (DEVD; SEQ ID NO:27), caspase-6 (VEID; SEQ ID NO:31), caspase-8 (IETD; SEQ ID NO:30), and caspase-9 (LEHD; SEQ ID NO:28). Two confluent 15 cm dishes of astrocytes (pBabe or Bcl2L12-V5 transfected) were left untreated or treated with STS (500 nm) for 24 hours and lysed in a lysis buffer containing 1% Trition X-100. The lysed cells were then spun for 15 minutes at 14,000 rpm at 4° C. to obtain a postnuclear supernatant. The supernatants (standardized to 20 mg of protein) were incubated with 40 μM of AFC labeled peptide substrate for 1 hour at 37° C. The samples were read in a fluorescence plate reader, and the specific RFUs were calculated. In the presence of active caspases, the fluorogenic group AFC is released from the peptide, and its fluorescence can be quantified using a plate reader.
The mechanism of action of EGFR*, in contrast to Bcl2L12, stems from the activation of upstream survival pathways that converge to inhibit cytochrome c redistribution and subsequent caspase-9 processing (FIG. 8B), as reported previously (Nagane et al., Proc Natl Acad Sci USA 95:5724-9(1998)). In addition, the ability of Bcl2L12 polypeptide to inhibit effector caspase function is reflected in decreased levels of the caspase-9 p37 as a result of caspase-3-mediated cleavage intermediate (FIG. 8A, 16 hours; Fujita et al., Cell Death Differ. 8:335-44 (2001)). […] As a consequence of a caspase-3-mediated feedback mechanism (Fujita et al., Cell Death Differ. 8:335-44 (2001); Slee et al., J Cell Biol. 144, 281-92 (1999)), caspase-9 processing in later phases of apoptosis progression was enhanced (FIG. 8C, 16 hours). […] Caspase activities were determined fluorometrically using a fluorescence plate reader. […]

caspase-9 = molecular target: T1, caspase-9 (Homo sapiens, UniProt P55211); test: Caspase-9 in vitro cleavage and LEHDase activity assay with 293T cells; type: cell-based; settings: for caspase-9 activity: V5 tagged constructs, vector only about 420 RFUs
T1 construct: endogenous in cells; host or cells: 293T
T1 sequence (P55211 1-416): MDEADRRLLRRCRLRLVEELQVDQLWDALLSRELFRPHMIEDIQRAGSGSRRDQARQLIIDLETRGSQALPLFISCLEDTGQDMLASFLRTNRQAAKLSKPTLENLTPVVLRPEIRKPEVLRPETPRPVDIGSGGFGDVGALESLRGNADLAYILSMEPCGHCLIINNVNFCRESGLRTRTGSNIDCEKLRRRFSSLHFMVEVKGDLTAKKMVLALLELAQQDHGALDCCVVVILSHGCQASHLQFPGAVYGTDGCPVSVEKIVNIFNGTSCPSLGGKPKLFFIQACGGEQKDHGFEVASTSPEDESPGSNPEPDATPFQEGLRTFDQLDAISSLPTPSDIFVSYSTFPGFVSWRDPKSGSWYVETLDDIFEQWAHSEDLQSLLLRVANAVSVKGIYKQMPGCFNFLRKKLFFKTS
Source text: To determine if Bcl2L12 polypeptides could-regulate-the activity of caspase-9, a cell-free system was used in which exogenously added dATP and cytochrome c induced the activation of [^35S] labeled in vitro translated caspase-9. […] To confirm the inhibitory effect of Bcl2L12 polypeptides on caspase-9 maturation, 293T cells ectopically expressing Bcl2L12-V5 polypeptides where either subjected to an in vitro cleavage assay or to an activity assay using the caspase-9 specific fluorogenic peptide LEHD.
In addition, vectors encoding V5 tagged wild-type human Bcl2L12 polypeptide (WT; human amino acid sequence 1-334) and three V5 tagged truncation mutants of human Bcl2L12 (Bcl2L12-ΔBH2 polypeptide, human amino acid sequence 1-310; Bcl2L12-ΔBH2ΔP-r polypeptide, human amino acid sequence 1-267; and Bcl2L12-ΔBH2ΔP-rΔIHD polypeptide, human amino acid sequence 1-167) were made (FIG. 4A). These vectors expressed the appropriately sized polypeptides when translated in vitro or when expressed in 293T cells.

caspase activity (caspase-2, -3/7, -6, -8, -9) [2]: even more pronounced inhibition
caspase-9 activity (caspase-9): about 160 RFUs
B1: Bcl2L12-V5-ΔBH2: V5 tagged mutant lacking amino acid residues 311-334 (BH2 domain) of human Bcl2L12; sequence 1-310 (protein)
chain: MGRPAGLFPPLCPFLGFRPEACWERHMQIERAPSVPPFLRWAGYRPGPVRRRGKVELIKFVRVQWRRPQVEWRRRRWGPGPGASMAGSEELGLREDTLRVLAAFLRRGEAAGSPVPTPPRSPAQEEPTDFLSRLRRCLPCSLGRGAAPSESPRPCSLPIRPCYGLEPGPATPDFYALVAQRLEQLVQEQLKSPPSPELQGPPSTEKEAILRRLVALLEEEAEVINQKLASDPALRSKLVRLSSDSFARLVELFCSRDDSSRPSRACPGPPPPSPEPLARLALAMELSRRVAGLGGTLAGLSVEHVHSFTP
modifications: left off: small tags and cut ends
DNA fragmentation [1]: about 7%

caspase activity (caspase-2, -3/7, -6, -8, -9) [2]: significantly impaired
caspase-9 activity (caspase-9): about 145 RFUs
processing of caspase-9 into p37 and p35 (caspase-9; in vitro cleavage assay, 293T cells, vs vector only): reduced processing of caspase-9
B2: Bcl2L12-V5: Bcl2L12 polypeptide having the V5 epitope tag, ectopically expressed from pBabe-Bcl2L12-V5 vector; human amino acid sequence 1-334 (protein)
chain: MGRPAGLFPPLCPFLGFRPEACWERHMQIERAPSVPPFLRWAGYRPGPVRRRGKVELIKFVRVQWRRPQVEWRRRRWGPGPGASMAGSEELGLREDTLRVLAAFLRRGEAAGSPVPTPPRSPAQEEPTDFLSRLRRCLPCSLGRGAAPSESPRPCSLPIRPCYGLEPGPATPDFYALVAQRLEQLVQEQLKSPPSPELQGPPSTEKEAILRRLVALLEEEAEVINQKLASDPALRSKLVRLSSDSFARLVELFCSRDDSSRPSRACPGPPPPSPEPLARLALAMELSRRVAGLGGTLAGLSVEHVHSFTPWIQAHGGWEGILAVSPVDLNLPLD
modifications: left off: small tags and cut ends
resistance to anti-Fas, TRAIL, etoposide, and carboplatin mediated apoptosis [1]: complete resistance
DNA fragmentation [1]: about 2%
protection from γ-irradiation-induced apoptosis (DNA fragmentation) ([1]; 10, 50, 100 Gy, 24 hours): protects
protection from STS-induced apoptosis (DNA fragmentation) ([1]; 50, 100, or 1000 nM STS, 24 hours): protected astrocytes from STS-induced apoptosis
protection from TNFα-mediated apoptosis (DNA fragmentation) ([1]; TNFα with 1 μg/mL cycloheximide, 24 hours): significant protection
maximum percent DNA fragmentation ([1]; camptothecin up to 32 μM, 20 hours, pBabe greater than 60 percent): 35 to 45%
DEVDase activity ([2]; 0.5 μM STS, pBabe about 8500 RFUs): about 3500 RFUs
LEHDase activity (caspase-9; 293T cells, control vector about 800 RFUs): about 260 RFUs
